Laboratory results from doi:10.1101/2025.08.29.673013.

Experiments:
[1] = target: Full-length human PARP2 isoform 2 (amino acids 1–570) (human) (UniProt Q9UGN5); assay: ITC
[2] = target: N-terminal region of PARP2 (NTR; aa 1–80) (human) (UniProt Q9UGN5); assay: ITC
[3] = target: NTR-WGR construct of PARP2 (aa 1–205) (human) (UniProt Q9UGN5); assay: ITC
[4] = target: WGR-CAT construct of PARP2 (aa 81–570) (human) (UniProt Q9UGN5); assay: ITC
[5] = target: Full-length human PARP2 isoform 2 (amino acids 1–570) (human) (UniProt Q9UGN5); assay: BLI
[6] = target: Biotinylated SUMO [SUMO: Q12306]; assay: BLI

Substance	Kd [1]	Kd [2]	Kd [3]	Kd [4]	IC50 [5]	Kd [6]	koff [6]	kon [6]
Small ubiquitin like modifier (SUMO) (from UniProt Q12306 1-101) (natural protein)	45.6 µM	201 µM	125 µM	1000 µM	0.82 µM	–	–	–
Full-length human PARP2 isoform 2 (amino acids 1–570) (from UniProt Q9UGN5-2 1-570) (enzyme)	–	–	–	–	–	66.8 µM	0.301 s⁻¹	4500 M⁻¹ s⁻¹
